Each protein was assayed on Nc1ncnc2c1ncn2[C@@H]1O[C@H](COP(=O)(O)OP(=O)(O)OP(=O)(O)O)[C@@H](O)[C@H]1O (assay: purified protein). Details: co-substrate N-acetylmannosamine.

Protein | Km | kcat
NanK (N-acetylmannosamine kinase) (Escherichia coli K-12) (protein) MTTLAIDIGGTKLAAALIGADGQIRDRRELPTPASQTPEALRDALSALVSPLQAHAQRVAIASTGIIRDGSLLALNPHNLGGLLHFPLVKTLEQLTNLPTIAINDAQAAAWAEFQALDGDITDMVFITVSTGVGGGVVSGCKLLTGPGGLAGHIGHTLADPHGPVCGCGRTGCVEAIASGRGIAAAAQGELAGADAKTIFTRAGQGDEQAQQLIHRSARTLARLIADIKATTDCQCVVVGGSVGLAEGYLALVETYLAQEPAAFHVDLLAAHYRHDAGLLGAALLAQGEKL | (1.4 ± 0.2)×10^−4 M | 29 ± 0.5 s⁻¹
NanK (N-acetylmannosamine kinase) (Escherichia coli K-12; L84R) (protein) MTTLAIDIGGTKLAAALIGADGQIRDRRELPTPASQTPEALRDALSALVSPLQAHAQRVAIASTGIIRDGSLLALNPHNLGGLRHFPLVKTLEQLTNLPTIAINDAQAAAWAEFQALDGDITDMVFITVSTGVGGGVVSGCKLLTGPGGLAGHIGHTLADPHGPVCGCGRTGCVEAIASGRGIAAAAQGELAGADAKTIFTRAGQGDEQAQQLIHRSARTLARLIADIKATTDCQCVVVGGSVGLAEGYLALVETYLAQEPAAFHVDLLAAHYRHDAGLLGAALLAQGEKL | (8.3 ± 1.4)×10^−5 M | 17 ± 0.3 s⁻¹
NanK (N-acetylmannosamine kinase) (Escherichia coli K-12; L84P) (protein) MTTLAIDIGGTKLAAALIGADGQIRDRRELPTPASQTPEALRDALSALVSPLQAHAQRVAIASTGIIRDGSLLALNPHNLGGLPHFPLVKTLEQLTNLPTIAINDAQAAAWAEFQALDGDITDMVFITVSTGVGGGVVSGCKLLTGPGGLAGHIGHTLADPHGPVCGCGRTGCVEAIASGRGIAAAAQGELAGADAKTIFTRAGQGDEQAQQLIHRSARTLARLIADIKATTDCQCVVVGGSVGLAEGYLALVETYLAQEPAAFHVDLLAAHYRHDAGLLGAALLAQGEKL | (1.4 ± 0.3)×10^−4 M | 13 ± 0.2 s⁻¹

Source: PMC10519446
